Laboratory results published in the Immune Epitope Database (IEDB).
Each block holds one sequence with its values, some of them ahead of it.

Assays:
HLA-C*03:03 = experiment: IEDB peptide-MHC binding, purified MHC/direct/fluorescence; filed as Kd, often an IC50 or EC50 that approximates it; ≥ and ≤ were set here for values at or beyond the usual limits of such assays; conditions: source organism: Bacillus anthracis str. A0488
HLA-B*58:01 = experiment: IEDB peptide-MHC binding, purified MHC/competitive/fluorescence; filed as Kd, often an IC50 or EC50 that approximates it; ≥ and ≤ were set here for values at or beyond the usual limits of such assays
HLA-A*02:01 = experiment: as above
HLA-A*02:03 [1] = experiment: as above
HLA-A*02:12 [2] = experiment: as above
HLA-A*02:16 [3] = experiment: as above
HLA-A*02:19 [4] = experiment: as above
HLA-A*03:01 [5] = experiment: as above
HLA-A*23:01 = experiment: as above
HLA-A*24:03 [6] = experiment: as above
HLA-A*26:01 [7] = experiment: as above
HLA-A*29:02 = experiment: as above
HLA-B*15:01 = experiment: as above
HLA-B*15:17 = experiment: as above
HLA-B*18:01 = experiment: as above
HLA-B*27:03 = experiment: as above
HLA-B*39:01 = experiment: as above
HLA-B*46:01 = experiment: as above
HLA-B*51:01 = experiment: as above
HLA-B*57:01 = experiment: as above
HLA-A*01:01 = experiment: IEDB peptide-MHC binding, purified MHC/direct/fluorescence; filed as Kd, often an IC50 or EC50 that approximates it; ≥ and ≤ were set here for values at or beyond the usual limits of such assays
HLA-A*26:01 [8] = experiment: as above
HLA-B*35:01 = experiment: IEDB peptide-MHC binding, purified MHC/competitive/fluorescence; filed as Kd, often an IC50 or EC50 that approximates it; ≥ and ≤ were set here for values at or beyond the usual limits of such assays
HLA-B*27:05 = experiment: as above
HLA-A*02:03 [9] = experiment: IEDB peptide-MHC binding, purified MHC/direct/fluorescence; filed as Kd, often an IC50 or EC50 that approximates it; ≥ and ≤ were set here for values at or beyond the usual limits of such assays; conditions: source organism: Ravn virus - Ravn, Kenya, 1987
HLA-A*02:11 [10] = experiment: as above; conditions: source organism: Ravn virus - Ravn, Kenya, 1987
HLA-A*02:12 [11] = experiment: as above; conditions: source organism: Ravn virus - Ravn, Kenya, 1987
HLA-A*02:16 [12] = experiment: as above; conditions: source organism: Ravn virus - Ravn, Kenya, 1987
HLA-A*02:19 [13] = experiment: as above
HLA-A*03:01 [14] = experiment: as above
HLA-A*24:03 [15] = experiment: as above; conditions: source organism: Ravn virus - Ravn, Kenya, 1987
HLA-A*68:02 [16] = experiment: as above
HLA-A*69:01 = experiment: IEDB peptide-MHC binding, purified MHC/competitive/fluorescence; filed as Kd, often an IC50 or EC50 that approximates it; ≥ and ≤ were set here for values at or beyond the usual limits of such assays
HLA-A*02:11 [17] = experiment: as above
HLA-B*40:01 = experiment: IEDB peptide-MHC binding, purified MHC/direct/fluorescence; filed as Kd, often an IC50 or EC50 that approximates it; ≥ and ≤ were set here for values at or beyond the usual limits of such assays; conditions: source organism: Ebola virus - Gabon (1994-1997)
HLA-A*68:02 [18] = experiment: IEDB peptide-MHC binding, purified MHC/competitive/fluorescence; filed as Kd, often an IC50 or EC50 that approximates it; ≥ and ≤ were set here for values at or beyond the usual limits of such assays
HLA-C*14:02 = experiment: IEDB peptide-MHC binding, purified MHC/direct/fluorescence; filed as Kd, often an IC50 or EC50 that approximates it; ≥ and ≤ were set here for values at or beyond the usual limits of such assays; conditions: source organism: Mycobacterium tuberculosis H37Rv
HLA-C*15:02 = experiment: as above; conditions: source organism: Mycobacterium tuberculosis H37Rv
[19] = source organism: Vibrio parahaemolyticus AQ3810
[20] = source organism: Mycobacterium tuberculosis variant bovis BCG str. Pasteur 1173P2
[21] = source organism: Bacillus anthracis str. A2012
[22] = source organism: Sudan ebolavirus - Maleo (1979)
[23] = source organism: Ravn virus - Ravn, Kenya, 1987
[24] = source organism: Zaire ebolavirus
[25] = source organism: Vibrio vulnificus CMCP6
[26] = source organism: Escherichia coli 536
[27] = source organism: Giardia lamblia ATCC 50803
[28] = source organism: Mycobacterium tuberculosis H37Rv
[29] = source organism: Salmonella enterica subsp. enterica serovar Typhi str. CT18

Sequence: ITLPISASL
Kd (HLA-C*03:03): ≤ 0.001 µM
Kd (HLA-B*58:01; source organism: Bacillus anthracis str. A0488): 0.114 µM

Sequence: KVGYFQHGA
Kd (HLA-A*02:01; [19]): ≥ 20 µM
Kd (HLA-A*02:03 [1]; [19]): ≥ 20 µM
Kd (HLA-A*02:12 [2]; [19]): 0.171 µM
Kd (HLA-A*02:16 [3]; [19]): ≥ 20 µM
Kd (HLA-A*02:19 [4]; [19]): ≥ 20 µM
Kd (HLA-A*03:01 [5]; [19]): ≥ 20 µM
Kd (HLA-A*23:01; [19]): ≥ 20 µM
Kd (HLA-A*24:03 [6]; [19]): ≥ 20 µM
Kd (HLA-A*26:01 [7]; [19]): ≥ 20 µM
Kd (HLA-A*29:02; [19]): ≥ 20 µM
Kd (HLA-B*15:01; [19]): ≥ 20 µM
Kd (HLA-B*15:17; [19]): ≥ 20 µM
Kd (HLA-B*18:01; [19]): ≥ 20 µM
Kd (HLA-B*27:03; [19]): ≥ 20 µM
Kd (HLA-B*39:01; [19]): ≥ 20 µM
Kd (HLA-B*46:01; [19]): ≥ 20 µM
Kd (HLA-B*51:01; [19]): ≥ 20 µM
Kd (HLA-B*57:01; [19]): ≥ 20 µM

Sequence: FVARIDLGY
Kd (HLA-A*01:01; [20]): 0.603 µM
Kd (HLA-A*26:01 [8]; [20]): 0.0199 µM
Kd (HLA-B*35:01; source organism: Mycobacterium tuberculosis C): 0.0142 µM

Sequence: FVAAGAFHM
Kd (HLA-A*26:01 [7]; [21]): 0.278 µM
Kd (HLA-B*35:01; [21]): 0.0037 µM

Sequence: VRFANELSF
Kd (HLA-B*27:05; source organism: Bacillus cereus H3081.97): 0.0996 µM

Sequence: YSGNIVHRY
Kd (HLA-A*01:01; [22]): 0.0896 µM
Kd (HLA-A*02:03 [9]): ≥ 20 µM
Kd (HLA-A*02:11 [10]): ≥ 20 µM
Kd (HLA-A*02:12 [11]): ≥ 20 µM
Kd (HLA-A*02:16 [12]): ≥ 20 µM
Kd (HLA-A*02:19 [13]; [23]): ≥ 20 µM
Kd (HLA-A*03:01 [14]; [23]): ≥ 20 µM
Kd (HLA-A*24:03 [15]): ≥ 20 µM
Kd (HLA-A*26:01 [8]; [22]): 1.55 µM
Kd (HLA-A*68:02 [16]; [23]): ≥ 20 µM
Kd (HLA-A*02:01; [24]): ≥ 20 µM
Kd (HLA-A*69:01; [24]): ≥ 20 µM
Kd (HLA-B*27:03; [24]): ≥ 20 µM
Kd (HLA-B*39:01; [24]): ≥ 20 µM
Kd (HLA-B*46:01; [24]): ≥ 20 µM
Kd (HLA-B*51:01; [24]): ≥ 20 µM
Kd (HLA-B*58:01; [24]): 0.0647 µM

Sequence: WLAGFEPSE
Kd (HLA-A*02:01; [25]): ≥ 20 µM
Kd (HLA-A*02:03 [1]; [25]): ≥ 20 µM
Kd (HLA-A*02:11 [17]; [25]): ≥ 20 µM
Kd (HLA-A*02:12 [2]; [25]): 0.453 µM
Kd (HLA-A*02:19 [4]; [25]): ≥ 20 µM
Kd (HLA-A*03:01 [5]; [25]): ≥ 20 µM
Kd (HLA-A*23:01; [25]): ≥ 20 µM
Kd (HLA-A*24:03 [6]; [25]): ≥ 20 µM
Kd (HLA-A*26:01 [7]; [25]): ≥ 20 µM
Kd (HLA-A*29:02; [25]): ≥ 20 µM
Kd (HLA-B*15:01; [25]): ≥ 20 µM
Kd (HLA-B*18:01; [25]): ≥ 20 µM
Kd (HLA-B*27:03; [25]): ≥ 20 µM
Kd (HLA-B*39:01; [25]): ≥ 20 µM
Kd (HLA-B*46:01; [25]): ≥ 20 µM
Kd (HLA-B*51:01; [25]): ≥ 20 µM
Kd (HLA-B*57:01; [25]): ≥ 20 µM

Sequence: KTNRTGLLM
Kd (HLA-B*58:01; source organism: Bacillus cereus G9241): 0.0913 µM

Sequence: GRITVSTKR
Kd (HLA-B*27:05; source organism: Influenza A virus (A/CHU/2-524/2005(H3N2))): 0.315 µM

Sequence: KQIPIWLPL
Kd (HLA-A*02:19 [13]; [24]): ≥ 20 µM
Kd (HLA-A*03:01 [14]; [24]): ≥ 20 µM
Kd (HLA-A*68:02 [16]; [24]): ≥ 20 µM
Kd (HLA-B*40:01): 0.0009 µM
Kd (HLA-A*26:01 [7]; [24]): ≥ 20 µM
Kd (HLA-A*69:01; [24]): ≥ 20 µM
Kd (HLA-B*27:05; [24]): 0.316 µM
Kd (HLA-B*51:01; [24]): ≥ 20 µM
Kd (HLA-B*57:01; [24]): ≥ 20 µM

Kd (HLA-A*24:03 [6]; [26]): 0.0002 µM
Kd (HLA-B*15:01; [26]): 0.223 µM
Kd (HLA-B*58:01; [26]): 0.046 µM
Sequence: QMLPGYFRF

Sequence: DEYGPVFVE
Kd (HLA-A*02:01; [27]): ≥ 20 µM
Kd (HLA-A*02:03 [1]; [27]): ≥ 20 µM
Kd (HLA-A*02:11 [17]; [27]): ≥ 20 µM
Kd (HLA-A*02:12 [2]; [27]): ≥ 20 µM
Kd (HLA-A*02:16 [3]; [27]): ≥ 20 µM
Kd (HLA-A*02:19 [4]; [27]): ≥ 20 µM
Kd (HLA-A*03:01 [5]; [27]): ≥ 20 µM
Kd (HLA-A*23:01; [27]): ≥ 20 µM
Kd (HLA-A*24:03 [6]; [27]): ≥ 20 µM
Kd (HLA-A*26:01 [7]; [27]): ≥ 20 µM
Kd (HLA-A*29:02; [27]): ≥ 20 µM
Kd (HLA-A*68:02 [18]; [27]): ≥ 20 µM
Kd (HLA-A*69:01; [27]): ≥ 20 µM
Kd (HLA-B*15:01; [27]): ≥ 20 µM
Kd (HLA-B*15:17; [27]): ≥ 20 µM
Kd (HLA-B*18:01; [27]): 0.0861 µM
Kd (HLA-B*27:03; [27]): ≥ 20 µM
Kd (HLA-B*39:01; [27]): ≥ 20 µM
Kd (HLA-B*46:01; [27]): ≥ 20 µM
Kd (HLA-B*51:01; [27]): ≥ 20 µM
Kd (HLA-B*57:01; [27]): ≥ 20 µM

Sequence: YVRTNGASY
Kd (HLA-A*26:01 [8]; source organism: Mycobacterium tuberculosis): 0.026 µM
Kd (HLA-C*14:02): 0.353 µM
Kd (HLA-C*15:02): ≥ 20 µM
Kd (HLA-B*35:01; [28]): 0.0646 µM
Kd (HLA-B*46:01; [28]): 2.22 µM

Sequence: KSKPRIHGY
Kd (HLA-A*02:01; [29]): ≥ 20 µM
Kd (HLA-A*02:03 [1]; [29]): ≥ 20 µM
Kd (HLA-A*02:11 [17]; [29]): ≥ 20 µM
Kd (HLA-A*02:12 [2]; [29]): ≥ 20 µM
Kd (HLA-A*02:16 [3]; [29]): ≥ 20 µM
Kd (HLA-A*02:19 [4]; [29]): ≥ 20 µM
Kd (HLA-A*03:01 [5]; [29]): ≥ 20 µM
Kd (HLA-A*23:01; [29]): ≥ 20 µM
Kd (HLA-A*24:03 [6]; [29]): ≥ 20 µM
Kd (HLA-A*26:01 [7]; [29]): ≥ 20 µM
Kd (HLA-A*29:02; [29]): ≥ 20 µM
Kd (HLA-A*68:02 [18]; [29]): ≥ 20 µM
Kd (HLA-A*69:01; [29]): ≥ 20 µM
Kd (HLA-B*18:01; [29]): ≥ 20 µM
Kd (HLA-B*27:03; [29]): ≥ 20 µM
Kd (HLA-B*39:01; [29]): ≥ 20 µM
Kd (HLA-B*46:01; [29]): ≥ 20 µM
Kd (HLA-B*51:01; [29]): ≥ 20 µM
Kd (HLA-B*57:01; [29]): 0.169 µM
